Four molecules from publication PMC3209518 can be followed below.

For data set [1], the target named is human chymotrypsin C (CTRC) mutant N52S, active enzyme (human) (UniProt Q99895). Nature of the data set: equilibrium inhibitor binding assay.
Data set [2] addresses human chymotrypsin C (CTRC), wild type, active enzyme (human) (UniProt Q99895). The data set can be described thus: equilibrium inhibitor binding assay.
The nature of data set [3]: CTRC activity of HEK 293T conditioned media. The note with it: glycan gained; control: wild type.
Data set [4] can be described thus: trypsin-induced mobility shift on reducing SDS-PAGE. The conditions noted are these: glycan lost; control: wild type.
Data set [5] in a line: casein digestion time course, SDS-PAGE. The conditions noted are these: glycan lost; control: wild type (HEK 293T).
The nature of data set [6]: steady-state kinetics, purified CTRC. The conditions noted are these: glycan lost; control: wild type (HEK 293T).
Data set [7] can be described thus: Leu81-Glu82 cleavage time course, SDS-PAGE. The conditions noted are these: glycan lost; control: wild type (HEK 293T).
The nature of data set [8]: active site titration of media with SGPI-2. The note with it: glycan lost; control: wild type.

Turning to “Schistocerca gregaria proteinase inhibitor-2 (SGPI-2) (natural protein)”, the values for the Kd in data set [1] and in data set [2] were 2.7 nM and 3.9 nM, respectively.

B1: bovine CTRC: E92T (protein)
parent chain: MLGITVFTTFLAYASSCGAPIFQPNLSARVVGGEDAIPHSWPWQISLQYLRDNTWRHTCGGTLITPNHVLTAAHCISNTLTYRVALGKNNLEVEDEAGSLYVGVDTIFVHEKWNSFLVRNDIALIKLAETVELSDTIQVACLPEEGSLLPQDYPCFVTGWGRLYTNGPIAAELQQGLQPVVDYATCSQRDWWGTTVKETMVCAGGDGVISACNGDSGGPLNCQAENGNWDVRGIVSFGSGLSCNTFKKPTVFTRVSAYIDWINQKLQL
As for B1, the “expression_or_secretion, fold_change” value in data set [3] is on record as “no change”.

B2: human chymotrypsin C (CTRC): N52S (protein)
parent chain: MLGITVLAALLACASSCGVPSFPPNLSARVVGGEDARPHSWPWQISLQYLKNDTWRHTCGGTLIASNFVLTAAHCISNTRTYRVAVGKNNLEVEDEEGSLFVGVDTIHVHKRWNALLLRNDIALIKLAEHVELSDTIQVACLPEKDSLLPKDYPCYVTGWGRLWTNGPIADKLQQGLQPVVDHATCSRIDWWGFRVKKTMVCAGGDGVISACNGDSGGPLNCQLENGSWEVFGIVSFGSRRGCNTRKKPVVYTRVSAYIDWINEKMQL
Regarding B2, in data set [4], the “other: proteolytic processing” value is “no change”. The enzymatic_activity result in data set [5] and in data set [7] was “no change” in each case. For the same molecule, the “enzymatic_activity, kcat_Km” value in data set [6] is “no change, 1.2 × 106 vs 1.2 × 106”.

B3: rat CTRC: N90S (protein)
parent chain: MLGITVLAAILACASCCGNPAFPPNLSTRVVGGEDAVPNSWPWQVSLQYLKDDTWRHTCGGSLITTSHVLTAAHCINKDFTYRVGLGKYNLTVEDEEGSVYAEVDTIYVHEKWNRLFLWNDIAIIKLAEPVELSNTIQVACIPEEGSLLPQDYPCYVTGWGRLWTNGPIAEVLQQGLQPIVSHATCSRLDWWFIKVRKTMVCAGGDGVISACNGDSGGPLNCQAEDGSWQVHGIVSFGSSSGCNVHKKPVVFTRVSAYNDWINEKIQL
With B3, the “expression_or_secretion, other: concentration in medium” value in data set [8] is “decreases, 62.4 vs 175”.
